Measured values published in IntAct's records for PubMed 22842346.

B1: High mobility group protein B1 (Mus musculus), P63158 (parent)
chain: MGKGDPKKPRGKMSSYAFFVQTCREEHKKKHPDASVNFSEFSKKCSERWKTMSAKEKGKFEDMAKADKARYEREMKTYIPPKGETKKKFKDPNAPKRPPSAFFLFCSEYRPKIKGEHPGLSIGDVAKKLGEMWNNTAADDKQPYEKKAAKLKEKYEKDIAAYRAKGKPDAAKKGVVKAEKSKKKKEEEDDEEDEEDEEEEEEEEDEDEEEDDDDE

Variants of: B1
Conditions: with havr2_mouse Havcr2, Q8VIM0
Chain of havr2_mouse Havcr2, Q8VIM0 (Q8VIM0 whole entry): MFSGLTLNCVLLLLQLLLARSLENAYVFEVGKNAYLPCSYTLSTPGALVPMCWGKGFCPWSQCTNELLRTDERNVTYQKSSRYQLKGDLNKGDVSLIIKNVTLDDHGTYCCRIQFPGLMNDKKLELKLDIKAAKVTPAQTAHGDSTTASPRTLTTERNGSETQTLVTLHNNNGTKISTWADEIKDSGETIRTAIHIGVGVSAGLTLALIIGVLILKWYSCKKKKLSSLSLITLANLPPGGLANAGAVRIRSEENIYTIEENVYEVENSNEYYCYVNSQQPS

Variant	effect of a mutation on the interaction
MGKGDPKKPRGKMSSYAFFVQTCREEHKKKHPDASVNFSEFSKKCSERWKTMSAKEKGKFEAMAKADKARYEREMKTYIPPKGETKKKFKDPNAPKRPPSAFFLFCSEYRPKIKGEHPGLSIGDVAKKLGEMWNNTAADDKQPYEKKAAKLKEKYEKDIAAYRAKGKPDAAKKGVVKAEKSKKKKEEEDDEEDEEDEEEEEEEEDEDEEEDDDDE [D62A]	decreasing interaction
